# Where a chain is given by its changes, count along the chain named. Names and notes keep the numbering of the source.
# B1: S415G (protein, UniProt P48546 22-466, looked up, variant S415G)
# Gastric inhibitory …: RAETGSKGQTAGELYQRWERYRRECQETLAAAEPPSGLACNGSFDMYVCWDYAAPNATARASCPWYLPWHHHVAAGFVLRQCGSDGQWGLWRDHTQCENPEKNEAFLDQRLILERLQVMYTVGYSLSLATLLLALLILSLFRRLHCTRNYIHINLFTSFMLRAAAILSRDRLLPRPGPYLGDQALALWNQALAACRTAQIVTQYCVGANYTWLLVEGVYLHSLLVLVGGSEEGHFRYYLLLGWGAPALFVIPWVIVRYLYENTQCWERNEVKAIWWIIRTPILMTILINFLIFIRILGILLSKLRTRQMRCRDYRLRLARSTLTLVPLLGVHEVVFAPVTEEQARGALRFAKLGFEIFLSSFQGFLVSVLYCFINKEVQSEIRRGWHHCRLRRGLGEEQRQLPERAFRALPSGSGPGEVPTSRGLSSGTLPGPGNEASRELESYC
# B2: S415I (protein, UniProt P48546 22-466, looked up, variant S415I)
# Gastric inhibitory …: B1 Gastric inhibitory … with G394I
# Experiments:
# Assay type in all cases: cell-based, human
# [1] = tested on: wild-type and variant SNAP-GIPR; experiment: Surface SNAP-GIPR expression (SNAP-tag labelling) in AD293 cells; conditions: for AD293 Surface: Fig S3E, mean; for Surface SNAP-GIPR expression: sheet Fig 1C;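 on all read-outs here: scaled to the experimental average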
# Outline: (§1)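 Read-out: whole-cell fluorescence of surface-only SNAP label (Alexa Fluor 647, 500 nM, 10 min, RT), wide-field 20X, several FOVs per well. Flat-field corrected, phase-contrast masked, nontransfected-well signal subtracted; normalized to experiment mean or wild-type.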
# [2] = tested on: wild-type and variant SNAP-GIPR; experiment: Surface SNAP-GIPR expression (SNAP-tag labelling) in INS-1 cells; conditions: Fig 4G; Mean
# Outline: as §1
# [3] = tested on: wild-type and variant SNAP-GIPR; experiment: Single-concentration GIP cAMP response by HTRF in AD293 cells; conditions: Fig S3F, HTRF, mean;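 further: ratio to experiment-wide average response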
# Description: (§2) All variants were tested in parallel on each occasion to control for transfection efficiency differences between experiments.
# [4] = tested on: wild-type and variant SNAP-GIPR; experiment: Single-concentration GIP cAMP response by HTRF in INS-1 cells; conditions: Fig S3E, mean
# Description: as §2
# [5] = tested on: wild-type and variant SNAP-GIPR; experiment: cADDis cAMP imaging in AD293 cells, ensemble, expression-matched and per decile; conditions: Fig S3F, cADDis, mean;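 further: Ensemble cells as % of IBMX/FSK response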
# Outline: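 AD293 cells reverse-transfected with wild-type or variant SNAP-GIPR plus cADDis Green Up sensor, variants run in parallel. After 24 h, surface receptor labelled with SNAP-Surface Alexa Fluor 647 (500 nM); single-cell cADDis fluorescence imaged at 37 °C in KRBH, 6 mM glucose, 0.1% BSA. Responses given ensemble, expression-matched by wild-type deciles, or per own decile.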
# [6] = tested on: wild-type and variant SNAP-GIPR; experiment: Constitutive and agonist-mediated internalization, reversible SNAP-tag labelling, AD293 cells; parameters: key to Internalisation, Vehicle / Internalisation, +GIP / Internalisation, GIP-only: % internalization: residual fluorescence after Mesna vs pre-Mesna; Surface expression: unit not given here; conditions: Mean; for +GIP internalisation (100 nM) / GIP-specific internalisation (100 nM) / Constitutive internalisation (100 nM) / Surface expression: Fig 4E; for +GIP internalisation (100 nM) / GIP-specific internalisation (100 nM): GIP 100 nM; for Internalisation, +GIP / Internalisation, GIP-only / Internalisation, Vehicle: Fig S4C, AD293
# Outline: (§3)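 Percentage internalization calculated as specific SNAP fluorescence remaining after 10 min Mesna exposure, relative to pre-Mesna signal, imaged in TNE buffer (pH 8.6).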
# [7] = tested on: wild-type and variant SNAP-GIPR; experiment: Constitutive and agonist-mediated internalization, reversible SNAP-tag labelling, INS-1 cells; parameters: key to Internalisation, GIP-only / Internalisation, Vehicle / Internalisation, +GIP: % internalization: residual fluorescence after Mesna vs pre-Mesna; conditions: Mean; for +GIP internalisation (100 nM) / GIP-specific internalisation (100 nM) / Constitutive internalisation (100 nM): Fig 4G; for +GIP internalisation (100 nM) / GIP-specific internalisation (100 nM): GIP 100 nM; for Internalisation, +GIP / Internalisation, GIP-only / Internalisation, Vehicle: Fig S4C, INS-1
# Outline: as §3
# [8] = column repeated, paired with cAMP 100 nM
molecule,measurement,setting,value
B1,AD293 Surface,[1]; [8],1.467
same,AD293 Surface,[1]; paired with cAMP 100 pM,1.467
same,Surface SNAP-GIPR expression,[1]; replicate 1,1.506
same,Surface SNAP-GIPR expression,[1]; replicate 2,0.2667
same,Surface SNAP-GIPR expression,[1]; replicate 3,1.585
same,Surface SNAP-GIPR expression,[1]; replicate 4,2.194
same,Surface SNAP-GIPR expression,[1]; replicate 5,1.195
same,Surface SNAP-GIPR expression,[1]; replicate 6,1.281
same,Surface SNAP-GIPR expression,[1]; replicate 7,1.352
same,Surface SNAP-GIPR expression,[1]; replicate 8,1.443
same,Surface SNAP-GIPR expression,[1]; replicate 9,1.419
same,Surface SNAP-GIPR expression,[1]; replicate 10,1.583
same,Surface SNAP-GIPR expression,[1]; replicate 11,1.553
same,Surface SNAP-GIPR expression,[1]; replicate 12,1.476
same,Surface SNAP-GIPR expression,[1]; replicate 13,2.028
same,Surface SNAP-GIPR expression,[1]; replicate 14,1.05
same,Surface SNAP-GIPR expression,[1]; replicate 15,1.445
same,Surface SNAP-GIPR expression,[1]; replicate 16,1.582
same,Surface SNAP-GIPR expression,[1]; replicate 17,1.552
same,Surface SNAP-GIPR expression,[1]; replicate 18,1.539
same,Surface SNAP-GIPR expression,[1]; replicate 19,1.754
same,Surface SNAP-GIPR expression,[1]; replicate 20,1.368
same,Surface SNAP-GIPR expression,[1]; replicate 21,1.348
same,Surface SNAP-GIPR expression,[1]; replicate 22,1.435
same,Surface SNAP-GIPR expression,[1]; replicate 23,1.476
same,Surface SNAP-GIPR expression,[1]; replicate 24,1.595
same,Surface SNAP-GIPR expression,[1]; replicate 25,1.677
same,Surface SNAP-GIPR expression,[1]; replicate 26,1.136
same,Surface SNAP-GIPR expression,[1]; replicate 27,1.395
same,Surface SNAP-GIPR expression,[1]; replicate 28,1.292
same,Surface SNAP-GIPR expression,[1]; replicate 29,1.605
same,Surface SNAP-GIPR expression,[1]; replicate 30,1.394
same,Surface SNAP-GIPR expression,[1]; replicate 31,1.688
same,Surface SNAP-GIPR expression,[1]; replicate 32,1.36
same,Surface SNAP-GIPR expression,[1]; replicate 33,1.647
same,Surface SNAP-GIPR expression,[1]; replicate 34,1.582
same,Surface SNAP-GIPR expression,[1]; replicate 35,1.005
same,Surface SNAP-GIPR expression,[1]; replicate 36,1.822
same,Surface SNAP-GIPR expression,[1]; replicate 37,1.489
same,Surface SNAP-GIPR expression,[1]; replicate 38,1.364
same,Surface SNAP-GIPR expression,[1]; replicate 39,0.9756
same,Surface SNAP-GIPR expression,[1]; replicate 40,1.792
same,Surface SNAP-GIPR expression,[1]; replicate 41,1.893
same,Surface expression,[2],1.381
same,AD293 100 pM HTRF,[3],1.117
same,AD293 100 nM HTRF,[3],1.323
same,INS-1 cAMP (100 nM),[4],1.389
same,AD293 100 pM cADDis,[5],34.3916
same,AD293 100 nM cADDis,[5],37.46
same,+GIP internalisation (100 nM),[6],0.8449
same,GIP-specific internalisation (100 nM),[6],0.2187
same,Constitutive internalisation (100 nM),[6],0.6262
same,Surface expression,[6],1.57
same,"Internalisation, +GIP",[6],54.2947
same,"Internalisation, GIP-only",[6],14.1911
same,"Internalisation, Vehicle",[6],40.1036
same,+GIP internalisation (100 nM),[7],0.6865
same,GIP-specific internalisation (100 nM),[7],0.178
same,Constitutive internalisation (100 nM),[7],0.5085
same,"Internalisation, +GIP",[7],49.94
same,"Internalisation, GIP-only",[7],12.7417
same,"Internalisation, Vehicle",[7],37.1983
B2,AD293 Surface,[1]; [8],1.415
same,AD293 Surface,[1]; paired with cAMP 100 pM,1.415
same,Surface SNAP-GIPR expression,[1]; replicate 1,1.538
same,Surface SNAP-GIPR expression,[1]; replicate 2,1.541
same,Surface SNAP-GIPR expression,[1]; replicate 3,0.8191
same,Surface SNAP-GIPR expression,[1]; replicate 4,0.7376
same,Surface SNAP-GIPR expression,[1]; replicate 5,1.239
same,Surface SNAP-GIPR expression,[1]; replicate 6,0.9541
same,Surface SNAP-GIPR expression,[1]; replicate 7,1.285
same,Surface SNAP-GIPR expression,[1]; replicate 8,1.716
same,Surface SNAP-GIPR expression,[1]; replicate 9,1.542
same,Surface SNAP-GIPR expression,[1]; replicate 10,1.528
same,Surface SNAP-GIPR expression,[1]; replicate 11,1.71
same,Surface SNAP-GIPR expression,[1]; replicate 12,1.642
same,Surface SNAP-GIPR expression,[1]; replicate 13,1.407
same,Surface SNAP-GIPR expression,[1]; replicate 14,1.415
same,Surface SNAP-GIPR expression,[1]; replicate 15,1.606
same,Surface SNAP-GIPR expression,[1]; replicate 16,1.78
same,Surface SNAP-GIPR expression,[1]; replicate 17,1.435
same,Surface SNAP-GIPR expression,[1]; replicate 18,1.518
same,Surface SNAP-GIPR expression,[1]; replicate 19,1.637
same,Surface SNAP-GIPR expression,[1]; replicate 20,1.459
same,Surface SNAP-GIPR expression,[1]; replicate 21,1.421
same,Surface SNAP-GIPR expression,[1]; replicate 22,1.515
same,Surface SNAP-GIPR expression,[1]; replicate 23,1.665
same,Surface SNAP-GIPR expression,[1]; replicate 24,1.354
same,Surface SNAP-GIPR expression,[1]; replicate 25,1.699
same,Surface SNAP-GIPR expression,[1]; replicate 26,1.338
same,Surface SNAP-GIPR expression,[1]; replicate 27,1.389
same,Surface SNAP-GIPR expression,[1]; replicate 28,1.441
same,Surface SNAP-GIPR expression,[1]; replicate 29,1.484
same,Surface SNAP-GIPR expression,[1]; replicate 30,1.535
same,Surface SNAP-GIPR expression,[1]; replicate 31,1.596
same,Surface SNAP-GIPR expression,[1]; replicate 32,1.349
same,Surface SNAP-GIPR expression,[1]; replicate 33,1.554
same,Surface SNAP-GIPR expression,[1]; replicate 34,1.711
same,Surface SNAP-GIPR expression,[1]; replicate 35,1.113
same,Surface SNAP-GIPR expression,[1]; replicate 36,1.535
same,Surface SNAP-GIPR expression,[1]; replicate 37,1.264
same,Surface SNAP-GIPR expression,[1]; replicate 38,1.181
same,Surface SNAP-GIPR expression,[1]; replicate 39,0.9176
same,Surface SNAP-GIPR expression,[1]; replicate 40,1.301
same,Surface SNAP-GIPR expression,[1]; replicate 41,1.157
same,Surface expression,[2],1.368
same,AD293 100 pM HTRF,[3],1.488
same,AD293 100 nM HTRF,[3],1.113
same,INS-1 cAMP (100 nM),[4],1.251
same,AD293 100 pM cADDis,[5],31.0791
same,AD293 100 nM cADDis,[5],35.96
same,+GIP internalisation (100 nM),[6],0.7539
same,GIP-specific internalisation (100 nM),[6],0.1889
same,Constitutive internalisation (100 nM),[6],0.565
same,Surface expression,[6],1.257
same,"Internalisation, +GIP",[6],60.2605
same,"Internalisation, GIP-only",[6],14.9072
same,"Internalisation, Vehicle",[6],45.3533
same,+GIP internalisation (100 nM),[7],0.7564
same,GIP-specific internalisation (100 nM),[7],0.2171
same,Constitutive internalisation (100 nM),[7],0.5393
same,"Internalisation, +GIP",[7],53.8917
same,"Internalisation, GIP-only",[7],15.145
same,"Internalisation, Vehicle",[7],38.7467
